# Source: the supplement of paper PMC9732359
# ± gives the uncertainty stated by the source.
# Assay: protein stability index of a GFP-peptide fusion (yeast GPS) (PSI 1-4); higher = more stable; sorted into four equal gates, so the index is relative within each strain
# In short: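 Tiled yeast protein peptides of 17 residues were each joined downstream of GFP, on plasmids that also express Cherry. The pooled library was maintained in yeast, and mid-log cultures in leucine-free medium were sorted into four equal gates on the GFP/Cherry ratio. Plasmids from every gate were amplified by PCR and sequenced on Illumina, with barcodes linking reads to strains. The protein stability index of a peptide is its gate-number-weighted read frequency summed over the gates.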
Sequence,protein stability index (doa10∆),protein stability index (pdr5∆),protein stability index (san1∆),protein stability index (ubr1∆)
YLKHNSIAEEIPIAIVL [RET1],2.65 ± 0.052,2.18 ± 0.047,1.73 ± 0.085,2.16 ± 0.05
LSHIVYFLVLSPYGNLQ [RPN5],1.53 ± 0.054,1.33 ± 0.055,1.25 ± 0.087,1.12 ± 0.034
DGKGAVYSFDPVGSYER [PRE7],3.31 ± 0.18,2.57 ± 0.12,2.94 ± 0.15,3.27 ± 0.081
IFFDEIDAVGGARFDDG [RPT1],3.01 ± 0.17,2.77 ± 0.15,3.24 ± 0.088,3.11 ± 0.089
GVEEEEELKDSEINEIL [SNF2],3.14 ± 0.16,3.33 ± 0.11,2.31 ± 0.12,2.72 ± 0.075
LVPTASFFIASQLQEQF [FAS1],1.35 ± 0.047,1.88 ± 0.053,1.53 ± 0.086,1.86 ± 0.04
LEFARITPMNDDQCMLI [SIN4],2.63 ± 0.074,2.82 ± 0.089,2.25 ± 0.051,3.31 ± 0.067
AMANAPGNNIPYMNHKN [GAL11],2.83 ± 0.17,3.26 ± 0.19,2.6 ± 0.18,2.75 ± 0.16
HSPFPFNRTKGKMVRAQ [PRP8],1.84 ± 0.2,1.16 ± 0.14,–,1.05 ± 0.094
QFEWHQNSLLTNTHPNF [SNF2],2.87 ± 0.063,2.88 ± 0.08,3.09 ± 0.066,2.99 ± 0.047
LARQVKLLLLNTSAIQE [YIL149C/MLP2],2.19 ± 0.085,1.75 ± 0.073,1.56 ± 0.12,1.65 ± 0.038
KERLTKEAAAVAEGKSK [RPL8A],3.53 ± 0.16,2.74 ± 0.22,3.31 ± 0.15,3.1 ± 0.16
RSYDLTRHQNTIHAKRK [RPN4],2.48 ± 0.061,2.48 ± 0.065,2.52 ± 0.071,2.53 ± 0.07
VLSIPPANHLQSDFCLS [YGL100W/SEH1],2.94 ± 0.11,2.44 ± 0.1,2.52 ± 0.11,2.59 ± 0.044
KKFATVPTGGASSAAAG [RPP2B],3.17 ± 0.13,3.21 ± 0.14,2.89 ± 0.079,3.06 ± 0.067
AEQSFDQQSPWLLRLEL [RPO21],3 ± 0.052,3.14 ± 0.051,3.1 ± 0.039,3.11 ± 0.04
TSAGIMDHEEARRKHVS [RPS22A],2.87 ± 0.3,2.73 ± 0.23,2.87 ± 0.24,2.62 ± 0.15
ARKSKEEREAAASKVKL [RPC53],3.16 ± 0.22,–,–,–
DIKVLKRQLIKERNQKF [YIL149C/MLP2],2.7 ± 0.084,2.62 ± 0.084,2.5 ± 0.091,2.41 ± 0.039
QDEAELVEEKTPGLTFN [RPC82],–,3.62 ± 0.29,–,3.35 ± 0.12

Sequence,protein stability index (doa10∆),protein stability index (pdr5∆),protein stability index (san1∆),protein stability index (ubr1∆)
MAKFLKAGKVAVVVRGR [RPL27A],1.53 ± 0.093,1.67 ± 0.057,1.57 ± 0.14,1.54 ± 0.092
VDSQGLPYNWDALEMQW [ARP7],1.7 ± 0.066,2.35 ± 0.07,2.64 ± 0.1,1.91 ± 0.073
DRGLSIKLNGSTLLCTD [SNU114],3.17 ± 0.14,2.76 ± 0.08,2.34 ± 0.092,3 ± 0.2
MSKIQVAHSSRLANLID [SMB1],1.47 ± 0.096,1.81 ± 0.15,1.09 ± 0.14,1.2 ± 0.15
QSALSQIIRLFYSKNRL [ISW2],2.62 ± 0.066,2.49 ± 0.059,1.87 ± 0.095,2.61 ± 0.053
QPKGVILYGPPGTGKTL [RPT6],3.47 ± 0.15,2.91 ± 0.21,3.3 ± 0.15,2.95 ± 0.21
ADEQKRSTDVWYEASTW [ARP7],2.36 ± 0.06,2.55 ± 0.049,2.78 ± 0.052,2.73 ± 0.048
TEKKFTKEQYAAESKKY [RPL5],3.2 ± 0.16,3.07 ± 0.14,2.98 ± 0.075,3.02 ± 0.11
HKISFSGTKSEVLTYVN [YJL039C/NUP192],2.65 ± 0.093,2.49 ± 0.082,2.39 ± 0.11,2.7 ± 0.087
DLISEILKWVQWSRIVL [MED1],3.48 ± 0.12,3.33 ± 0.11,3.08 ± 0.064,3.54 ± 0.061
SLGFLQQSNKLHCCIQL [RPN3],2.39 ± 0.06,2.47 ± 0.085,1.86 ± 0.12,2.14 ± 0.058
KARTNLHQHVVLKCLKS [RPC34],2.91 ± 0.19,2.64 ± 0.16,2.33 ± 0.14,2.23 ± 0.23
DQTNHIESDSILNLLNI [ECM29],3.02 ± 0.064,3.04 ± 0.072,2.99 ± 0.077,3.03 ± 0.059
NNKFANKIIPNVGLCIT [RPC25],2.71 ± 0.07,3.04 ± 0.082,2.94 ± 0.054,3 ± 0.081
GFYQIKKIVDSKKLNLK [YMR129W/POM152],3.11 ± 0.12,2.98 ± 0.092,2.41 ± 0.24,2.62 ± 0.11
KKLESQESLVKLFTTNE [RPN5],2.94 ± 0.11,3.12 ± 0.13,3.22 ± 0.081,2.88 ± 0.12
KFKRHHSDRYHRVAENW [RPL32],3 ± 0.072,3.21 ± 0.065,3.2 ± 0.05,3.07 ± 0.045
ELAESTTTKIIDSTDHI [LRP1],2.95 ± 0.1,3.11 ± 0.1,2.86 ± 0.24,2.63 ± 0.12
VLNMLYWVPDWDGVIPT [RPO21],2.92 ± 0.067,2.63 ± 0.066,2.92 ± 0.055,3.16 ± 0.038
VFVDGEANWPLPVNIRR [RPO21],2.99 ± 0.081,3.06 ± 0.085,3.12 ± 0.13,3.13 ± 0.072
